Legend:
HeLa Kyoto [1] = assay: solubility in G1/S (NP-40 vs SDS abundance) (log2 ratio); higher = more soluble; conditions: cell cycle stage: G1/S
HeLa Kyoto [2] = assay: thermal stability score vs G1/S (z-score of summed log2 fold changes over temperatures); higher = more thermally stable than in G1/S
HeLa Kyoto [3] = assay: solubility change mitosis vs G1/S (difference of NP-40 vs SDS log2 ratios) (log2 ratio difference); higher = more soluble in mitosis
HeLa Kyoto [4] = assay: melting temperature (median over replicates), in situ; higher = more thermally stable
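Throughout, for melting temperature (median over replicates), in situ: HeLa Kyoto cells synchronized by double thymidine or nocodazole block, proteins quantified by TMT10plex mass spectrometry, three independent biological replicates.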
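Throughout, for solubility change mitosis vs G1/S (difference of NP-40 vs SDS log2 ratios): synchronized HeLa Kyoto cells (double thymidine block for G1/S, nocodazole release for mitosis), protein amounts in NP-40 versus SDS lysates quantified by mass spectrometry, three biological replicates.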
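Throughout, for solubility in G1/S (NP-40 vs SDS abundance): HeLa Kyoto cells arrested at G1/S by double thymidine block, proteins quantified by TMT10plex mass spectrometry in mild NP-40 versus SDS extracts, three biological replicates.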
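Throughout, for thermal stability score vs G1/S (z-score of summed log2 fold changes over temperatures): synchronized HeLa Kyoto cells, proteins quantified by TMT10plex mass spectrometry, three biological replicates, mitosis taken 0.5 h after nocodazole release, G1/S directly after double thymidine block.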

Chain of TGOLN2 (chain, as listed by the source): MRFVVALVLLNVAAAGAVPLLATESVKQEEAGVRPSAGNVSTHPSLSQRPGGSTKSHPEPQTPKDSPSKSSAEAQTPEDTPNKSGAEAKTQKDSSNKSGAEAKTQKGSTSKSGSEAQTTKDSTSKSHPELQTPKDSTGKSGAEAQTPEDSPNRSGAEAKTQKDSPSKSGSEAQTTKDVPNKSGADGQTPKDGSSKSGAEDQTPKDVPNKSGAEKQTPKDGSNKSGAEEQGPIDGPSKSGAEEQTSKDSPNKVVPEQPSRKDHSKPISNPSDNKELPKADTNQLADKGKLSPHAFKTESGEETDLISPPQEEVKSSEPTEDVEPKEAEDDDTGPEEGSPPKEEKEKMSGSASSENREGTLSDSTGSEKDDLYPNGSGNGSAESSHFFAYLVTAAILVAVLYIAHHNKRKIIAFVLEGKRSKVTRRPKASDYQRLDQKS
Chain of UNC13B (chain, as listed by the source): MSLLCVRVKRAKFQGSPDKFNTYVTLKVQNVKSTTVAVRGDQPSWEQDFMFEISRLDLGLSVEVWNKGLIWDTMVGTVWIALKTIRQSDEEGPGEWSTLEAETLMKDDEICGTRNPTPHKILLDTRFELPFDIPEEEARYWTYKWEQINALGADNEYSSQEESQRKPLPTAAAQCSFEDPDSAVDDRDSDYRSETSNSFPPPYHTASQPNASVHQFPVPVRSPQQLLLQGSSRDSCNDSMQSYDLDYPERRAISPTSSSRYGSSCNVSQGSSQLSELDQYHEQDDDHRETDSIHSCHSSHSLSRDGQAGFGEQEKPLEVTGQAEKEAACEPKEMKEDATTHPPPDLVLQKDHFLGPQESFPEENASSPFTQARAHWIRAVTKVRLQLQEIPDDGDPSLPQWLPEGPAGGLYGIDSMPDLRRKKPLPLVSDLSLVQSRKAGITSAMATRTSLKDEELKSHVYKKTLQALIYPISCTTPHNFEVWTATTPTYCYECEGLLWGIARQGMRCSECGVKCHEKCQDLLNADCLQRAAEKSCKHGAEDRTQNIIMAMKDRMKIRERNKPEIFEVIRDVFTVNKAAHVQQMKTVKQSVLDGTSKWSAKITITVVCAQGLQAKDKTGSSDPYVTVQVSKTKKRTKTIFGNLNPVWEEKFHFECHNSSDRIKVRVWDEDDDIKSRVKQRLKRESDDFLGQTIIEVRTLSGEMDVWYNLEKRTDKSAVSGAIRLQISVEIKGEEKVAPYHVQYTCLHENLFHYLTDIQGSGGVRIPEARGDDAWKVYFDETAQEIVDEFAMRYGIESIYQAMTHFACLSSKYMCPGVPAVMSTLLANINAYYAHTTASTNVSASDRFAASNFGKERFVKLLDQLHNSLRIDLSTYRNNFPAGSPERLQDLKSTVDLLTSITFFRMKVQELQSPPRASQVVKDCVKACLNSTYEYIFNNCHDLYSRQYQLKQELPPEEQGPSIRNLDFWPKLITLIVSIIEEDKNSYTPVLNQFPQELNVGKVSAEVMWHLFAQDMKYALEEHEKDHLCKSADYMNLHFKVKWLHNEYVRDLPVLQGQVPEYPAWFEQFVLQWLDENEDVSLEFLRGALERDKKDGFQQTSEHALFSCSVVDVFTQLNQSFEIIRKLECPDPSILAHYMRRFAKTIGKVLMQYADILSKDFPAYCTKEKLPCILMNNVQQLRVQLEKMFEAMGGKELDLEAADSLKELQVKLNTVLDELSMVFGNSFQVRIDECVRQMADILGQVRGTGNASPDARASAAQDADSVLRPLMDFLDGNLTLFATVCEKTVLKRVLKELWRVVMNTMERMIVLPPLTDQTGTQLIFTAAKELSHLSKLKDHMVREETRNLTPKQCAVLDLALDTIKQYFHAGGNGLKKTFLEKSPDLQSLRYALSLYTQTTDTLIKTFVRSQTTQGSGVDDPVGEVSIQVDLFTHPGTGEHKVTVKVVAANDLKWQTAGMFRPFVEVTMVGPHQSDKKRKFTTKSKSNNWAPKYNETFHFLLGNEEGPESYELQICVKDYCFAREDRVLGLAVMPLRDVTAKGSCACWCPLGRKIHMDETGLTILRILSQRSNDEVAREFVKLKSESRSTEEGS
Chain of DNAJC15 (chain, as listed by the source): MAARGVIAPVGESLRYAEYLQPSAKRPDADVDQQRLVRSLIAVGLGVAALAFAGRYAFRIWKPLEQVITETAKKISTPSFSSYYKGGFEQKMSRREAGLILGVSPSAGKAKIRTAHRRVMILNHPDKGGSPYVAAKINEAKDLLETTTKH

Substance	solubility in G1/S (log2) (HeLa Kyoto [1])	thermal stability score (HeLa Kyoto [2]; cell cycle stage: early G1 (4.5 h after nocodazole release))	thermal stability score (HeLa Kyoto [2]; cell cycle stage: mitosis)	solubility change mitosis (log2) (HeLa Kyoto [3])	melting temperature (HeLa Kyoto [4]; cell cycle stage: mitosis) [°C]	melting temperature (HeLa Kyoto [4]; cell cycle stage: G1/S) [°C]
MSGPLEGADGGGDPRPGESFCPGGVPSPGPPQHRPCPGPSLADDTDANSNGSSGNESNGHESRGASQRSSHSSSSGNGKDSALLETTESSKSTNSQSPSPPSSSIAYSLLSASSEQDNPSTSGCSSEQSARARTQKELMTALRELKLRLPPERRGKGRSGTLATLQYALACVKQVQANQEYYQQWSLEEGEPCSMDMSTYTLEELEHITSEYTLQNQDTFSVAVSFLTGRIVYISEQAAVLLRCKRDVFRGTRFSELLAPQDVGVFYGSTAPSRLPTWGTGASAGSGLRDFTQEKSVFCRIRGGPDRDPGPRYQPFRLTPYVTKIRVSDGAPAQPCCLLIAERIHSGYEAPRIPPDKRIFTTRHTPSCLFQDVDERAAPLLGYLPQDLLGAPVLLFLHPEDRPLMLAIHKKILQLAGQPFDHSPIRFCARNGEYVTMDTSWAGFVHPWSRKVAFVLGRHKVRTAPLNEDVFTPPAPSPAPSLDTDIQELSEQIHRLLLQPVHSPSPTGLCGVGAVTSPGPLHSPGSSSDSNGGDAEGPGPPAPVTFQQICKDVHLVKHQGQQLFIESRARPQSRPRLPATGTFKAKALPCQSPDPELEAGSAPVQAPLALVPEEAERKEASSCSYQQINCLDSILRYLESCNLPSTTKRKCASSSSYTTSSASDDDRQRTGPVSVGTKKDPPSAALSGEGATPRKEPVVGGTLSPLALANKAESVVSVTSQCSFSSTIVHVGDKKPPESDIIMMEDLPGLAPGPAPSPAPSPTVAPDPAPDAYRPVGLTKAVLSLHTQKEEQAFLSRFRDLGRLRGLDSSSTAPSALGERGCHHGPAPPSRRHHCRSKAKRSRHHQNPRAEAPCYVSHPSPVPPSTPWPTPPATTPFPAVVQPYPLPVFSPRGGPQPLPPAPTSVPPAAFPAPLVTPMVALVLPNYLFPTPSSYPYGALQTPAEGPPTPASHSPSPSLPALAPSPPHRPDSPLFNSRCSSPLQLNLLQLEELPRAEGAAVAGGPGSSAGPPPPSAEAAEPEARLAEVTESSNQDALSGSSDLLELLLQEDSRSGTGSAASGSLGSGLGSGSGSGSHEGGSTSASITRSSQSSHTSKYFGSIDSSEAEAGAARGGAEPGDQVIKYVLQDPIWLLMANADQRVMMTYQVPSRDMTSVLKQDRERLRAMQKQQPRFSEDQRRELGAVHSWVRKGQLPRALDVMACVDCGSSTQDPGHPDDPLFSELDGLGLEPMEEGGGEQGSSGGGSGEGEGCEEAQGGAKASSSQDLAMEEEEEGRSSSSPALPTAGNCTS [PER1]	0.0364	0.55	0.377	-0.183		
MSEEEQGSGTTTGCGLPSIEQMLAANPGKTPISLLQEYGTRIGKTPVYDLLKAEGQAHQPNFTFRVTVGDTSCTGQGPSKKAAKHKAAEVALKHLKGGSMLEPALEDSSSFSPLDSSLPEDIPVFTAAAAATPVPSVVLTRSPPMELQPPVSPQQSECNPVGALQELVVQKGWRLPEYTVTQESGPAHRKEFTMTCRVERFIEIGSGTSKKLAKRNAAAKMLLRVHTVPLDARDGNEVEPDDDHFSIGVGSRLDGLRNRGPGCTWDSLRNSVGEKILSLRSCSLGSLGALGPACCRVLSELSEEQAFHVSYLDIEELSLSGLCQCLVELSTQPATVCHGSATTREAARGEAARRALQYLKIMAGSK [TARBP2]	0.152			0.129	51.7	
MAQSINITELNLPQLEMLKNQLDQEVEFLSTSIAQLKVVQTKYVEAKDCLNVLNKSNEGKELLVPLTSSMYVPGKLHDVEHVLIDVGTGYYVEKTAEDAKDFFKRKIDFLTKQMEKIQPALQEKHAMKQAVMEMMSQKIQQLTALGAAQATAKA [PFDN5]	-0.425			0.784	53.1	54.4
MPAFLGLKCLGKLCSSEKSKVTSSERTSARGSNRKRLIVEDRRVSGTSFTAHRRATITHLLYLCPKDYCPRGRVCNSVDPFVAHPQDPHHPSEKPVIHCHKCGEPCKGEVLRVQTKHFHIKCFTCKVCGCDLAQGGFFIKNGEYLCTLDYQRMYGTRCHGCGEFVEGEVVTALGKTYHPNCFACTICKRPFPPGDRVTFNGRDCLCQLCAQPMSSSPKETTFSSNCAGCGRDIKNGQALLALDKQWHLGCFKCKSCGKVLTGEYISKDGAPYCEKDYQGLFGVKCEACHQFITGKVLEAGDKHYHPSCARCSRCNQMFTEGEEMYLQGSTVWHPDCKQSTKTEEKLRPTRTSSESIYSRPGSSIPGSPGHTIYAKVDNEILDYKDLAAIPKVKAIYDIERPDLITYEPFYTSGYDDKQERQSLGESPRTLSPTPSAEGYQDVRDRMIHRSTSQGSINSPVYSRHSYTPTTSRSPQHFHRPGNEPSSGRNSPLPYRPDSRPLTPTYAQAPKHFHVPDQGINIYRKPPIYKQHAALAAQSKSSEDIIKFSKFPAAQAPDPSETPKIETDHWPGPPSFAVVGPDMKRRSSGREEDDEELLRRRQLQEEQLMKLNSGLGQLILKEEMEKESRERSSLLASRYDSPINSASHIPSSKTASLPGYGRNGLHRPVSTDFAQYNSYGDVSGGVRDYQTLPDGHMPAMRMDRGVSMPNMLEPKIFPYEMLMVTNRGRNKILREVDRTRLERHLAPEVFREIFGMSIQEFDRLPLWRRNDMKKKAKLF [ABLIM1]	-0.8			0.599	51.7	46.2
MRDNTSPISVILVSSGSRGNKLLFRYPFQRSQEHPASQTSKPRSRYAASNTGDHADEQDGDSRFSDVILATILATKSEMCGQKFELKIDNVRFVGHPTLLQHALGQISKTDPSPKREAPTMILFNVVFALRANADPSVINCLHNLSRRIATVLQHEERRCQYLTREAKLILALQDEVSAMADGNEGPQSPFHHILPKCKLARDLKEAYDSLCTSGVVRLHINSWLEVSFCLPHKIHYAASSLIPPEAIERSLKAIRPYHALLLLSDEKSLLGELPIDCSPALVRVIKTTSAVKNLQQLAQDADLALLQVFQLAAHLVYWGKAIIIYPLCENNVYMLSPNASVCLYSPLAEQFSHQFPSHDLPSVLAKFSLPVSLSEFRNPLAPAVQETQLIQMVVWMLQRRLLIQLHTYVCLMASPSEEEPRPREDDVPFTARVGGRSLSTPNALSFGSPTSSDDMTLTSPSMDNSSAELLPSGDSPLNQRMTENLLASLSEHERAAILSVPAAQNPEDLRMFARLLHYFRGRHHLEEIMYNENTRRSQLLMLFDKFRSVLVVTTHEDPVIAVFQALLP [NPRL3]	-0.108			0.129	52.5	50.8
TGOLN2	-0.315			0.881	53.9	59.5
UNC13B	-0.113			-0.114	49.4	50.3
DNAJC15	0.11			-0.164	51.2	51
